assay: yeast display, Sf9 membrane polyspecificity reagent, FACS + sequencing; frameworks hold sequencing errors
Method in brief: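 Using colony PCR, genes from sorted yeast display clones were amplified, then sequenced on MiSeq at 2 × 250 and filtered by CDR length. The clones had been stained with 10% biotinylated, detergent-solubilized Sf9 membrane reagent for 1 hour at 4 °C and sorted by FACS into low and high (top ~1%) gates on anti-HA and streptavidin fluorescence. Polyreactivity labels come from the gate of origin.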

Sequence	polyreactivity (PSR sort gate)
QVQLVESGGGLVQAGGSLRLSCAASGSTCARNSMGWYRQAPGKERELVAAISYSGGTTYYADSVKGRFTISRDNAKNTVYLQRNSLKPEDTAVSYCAKWEGHGRNPWGAGTEGDYWGQGTQVTVSS	low polyreactivity
QVQLVESGGGLVQAGGSLRLSCAASGSTCWFYAMGWYRQAPGKEREVVATITSGGNTTYADSVKGRFTISRDNAKNTVYLQMNSLKPEDTAVYYCAAGWQAPWGYYYHFEYDYWGQGTQVTVSS	low polyreactivity
QVQLVESGGGLVQAGGSLRLSCAASGSTCWSYAMGWYRQAPGKERELVATITRAGTTNYADSVKGRFTISRDNAKNTVSLQRNSLNPEDTAVYYCAKRIFRWPYQGSYSFIPFGYWGQGTQVTVSS	high polyreactivity
QVQLVESGGGLVQAGGSLRLSCAASGSTFAANAMGWYRQAPGKERELVAVIRRGGSTTYADSVKGRFTISRDNAKNTVYLLMNSLKPEDTAVYYCNARVTLGRPLFTYLVRYEYWGQGTQVTVSS	high polyreactivity
QVQLVESGGGLVQAGGSLRLSCAASGSTFAAYVMGWYRQAPGKERELVAAITKSGSSTYYADSVKGRFTISRDNAKNTVYLQMNSLKPEDTAVEYCAAYPVRVLYDYWGQGTQVTVSS	high polyreactivity
QVQLVESGGGLVQAGGSLRLSCAASGSTFADYAMGWYRQAPGKERELVAAISWSGGRTYYADSVKGRFTISRDNAKNTVYLQMNSLKPEDTAVYYCAAGFGDGPGNGYYTRYSWDDDYWGQGTQVTVSS	low polyreactivity
QVQLVESGGGLVQAGGSLRLSCAASGSTFAEYAMGWYRQAPGKERELVAAIRWSGGSTSYADSVKGRFTMSRDNAKHTVYLQMNSLKPEDTAVYYCAAERFWYDGAVKLYVLSYYWGQGTQVTVSS	low polyreactivity
QVQLVESGGGLVQAGGSLRLSCAASGSTFAEYVMGWYRQAPGKERELVAAISSGTSTYYADSVKGRFTISRDNAKNTVYLQMNSLKPEDTAVYYCNDDLYHTWYKPEYDYWGQGTQVTVSS	low polyreactivity
QVQLVESGGGLVQAGGSLRLSCAASGSTFAFNAMGWYRQAPGKEREFVARITWSDGSTYYADSVKGRFTISRDNAKNSVYLQMNSLKPEDTAVYYCARDPTEQAIARWTYDYWGQGTQVTVSS	low polyreactivity
QVQLVESGGGLVQAGGSLRLSCAASGSTFAFYAMGWYRQAPGKERELVAAISRSGGRTYYADSVKGRFTISRDNAKNTVYLQMNSLKPEDTAVYYCAAVFRSGYLRYYYWGQGTQVTVSS	high polyreactivity
QVQLVESGGGLVQAGGSLRLSCAASGSTFAFYDMGWYRQAPGKERELVAAISPSDGDTYYADSVKGRFTISRDNAKNTVYLQMNSLKPEDTAVYYSAAETSHNPEYERGSDYWGQGTQVTVSS	low polyreactivity
QVQLVESGGGLVQAGGSLRLSCAASGSTFAGNAMGWYRQAPGKERESVAAIDSSTGSTYYADSVKGRFTISRDNAKNTVYLQMTSLKPEDTAVYYCNKTSFLVKLDYWGQGTHVTVSS	low polyreactivity
QVQLVESGGGLVQAGGSLRLSCAASGSTFAHYTMGWYRQAPGKERELVAAITRSGGSTYYADSVKGRFTISRDNAKNKVYLQMNSLKPEDTAVYYCAATRQWNILRYDYWGQCTQVTVSS	low polyreactivity
QVQLVESGGGLVQAGGSLRLSCAASGSTFAIYAMGLYRQAPGKERELVAAITRSGGNTYYAESVKGRFTISRDNAKNTVYLQMNSLKPEDTAVYYCNAETYYWSAYAQYEYWGQGTQVTVSS	high polyreactivity
QVQLVESGGGLVQAGGSLRLSCAASGSTFAIYAMGWYRQAPGKERELVAAITRGSTSYADSVKGRFTISRDNAKNTVYLQMNSLKPEDTAVYYCAADSSRYGVIRDFDYWGQGTQVTVSS	high polyreactivity
QVQLVESGGGLVQAGGSLRLSCAASGSTFAKNAMGWYRQAPGKERELVAAITYSGGSTYYADSVKGRFTISRDNAKNTVYLQMNSLKPEDTAVYFCASDVWWSDYRYDYWGQGTQVTVSS	low polyreactivity
QVQLVESGGGLVQAGGSLRLSCAASGSTFAKNAMGWYRQAPGKERQLVAAITYSGGSTYYADSVKGRFTISRDNAKNTVYLQMNSLKPEDTAVYYCAADVWWSYYRYDYWGQGTQVTVSS	low polyreactivity
QVQLVESGGGLVQAGGSLRLSCAASGSTFAKYAMGWYRQAPGKERELVAAISSSGTSTYYADSVKGRFTISRDNAKNTVYLQMNSLKPEDTAVYYCAASYRNRYIAFYYWGQGTQVTVSS	low polyreactivity
QVQLVESGGGLVQAGGSLRLSCAASGSTFALYAMGWYRQAPGKERELVAAISRSGSSTYYADSVKGRFTMSRDNAKNTVYLQMNSLKPEDTAVYYCATTISGLTSRLYYWGQGTQVTVSS	high polyreactivity
QVQLVESGGGLVQAGGSLRLSCAASGSTFALYAMGWYRQAPGKERELVASITLSGGRTYYADSVKGRFTISRDNAKNTVYLQMNSLKPEDTAVDYCNAEDYDWMDYWGQGTQVTVSS	high polyreactivity
QVQLVESGGGLVQAGGSLRLSCAASGSTFALYAMGWYRQAPGKERELVAVITSGGSTYYADSVKGRFTISRDNAKNTVYLQMNSLKPEDTAVYYCAARRHVRKGPLGYWGQGTQVTVSS	high polyreactivity

Sequence	polyreactivity (PSR sort gate)
QVQLVESGGGLVQAGGSLRLSCAASGSTFANYAMGWYRQAPGKERELVAAISRGGNTYYADSVKVRFTISRDNAKNTVYLQMNSLKPEDTAVYYCAKYTYYSRPGDSDSDYWGQGTQVTVSS	high polyreactivity
QVQLVESGGGLVQAGGSLRLSCAASGSTFAPNTMGWYRQAPGKERELVARITSSDGSTTYADSVKGRFTISRDNAKNTVYLQRNSLKPEDTAVYYCAADYGRRWGYDYWGQGTQVTVSS	low polyreactivity
QVQLVESGGGLVQAGGSLRLSCAASGSTFARYAMGWYRQAPGKERELVAAISRSGSNTYYADSVKGRFTISRDNAKNTVYLQMNSLKPEDTAVYYCAAVQPGQRTVAYDYWGQGTQVTVSS	high polyreactivity
QVQLVESGGGLVQAGGSLRLSCAASGSTFARYAMGWYRQAPGKERELVAAITWRGGSTYYADSVKGRFTISRDNAKNTVYLQMNSLKPEDTAVYYCAADFSRRYGYWGQGTQVTVSS	high polyreactivity
QVQLVESGGGLVQAGGSLRLSCAASGSTFARYAMGWYRQAPGKERELVAGISRGGRTYYADSVMGRFTISRDYAKNTVYLQMNSLKPVDTAVYYCAKRYVTLYNSQYNYWGQGTQVTVSS	high polyreactivity
QVQLVESGGGLVQAGGSLRLSCAASGSTFARYAMGWYRQAPGKERELVAGISTSGGRTYYADSVKGRFTISRDNAKNTVYLQMTSLKPEDTAVYYCAKALSQTWYDGQYGYWGQGTQVTVSS	low polyreactivity
QVQLVESGGGLVQAGGSLRLSCAASGSTFASYAMGWSRQAPGKERELVAAIRWRGGTTYYADSVKGRFTISRDNAKNTVYLQMNSLKPEDTAVYYCNADRYYLYYYWGQGTQVTVSW	low polyreactivity
QVQLVESGGGLVQAGGSLRLSCAASGSTFASYAMGWYRQAPGKEREFVAAISRSGGSTYYADSVKGRFTISRDNAKNTVYLQMNSLKPEDTAVYYCAARSPSADEYYYWGQGTQVTVSS	low polyreactivity
QVQLVESGGGLVQAGGSLRLSCAASGSTFATNAMGWYRQAPGKERELVATISSDGSTNYADSVKGRFTISRDNAKNTVYLQMNSLKPEDTAVYYCATEVTYPWHVDEGDYWGQGTQVTVSS	low polyreactivity
QVQLVESGGGLVQAGGSLRLSCAASGSTFAVYAMGWYRQAPGKERELVAAITWSGGSTYYADSVKGRFTISRDNAKNTVYFQMNSLKPEDTAVYYCAAAGYYSDMDYWGQGTQVTVSS	low polyreactivity
QVQLVESGGGLVQAGGSLRLSCAASGSTFAVYAMGWYRQEPGKERELVATITGSGGSTYYADSVKGRFTISRDNAKNTVYLQMNSLKPEDTAVYYCAAEVVAWSLYEDFKTYDYWGQGTQVTVSS	low polyreactivity
QVQLVESGGGLVQAGGSLRLSCAASGSTFAVYTMGWYRQAPGKERELVAAISSSGGSTYLRRSVKGRFTISRDNAKNTVYLQMNSLKPEDTAVYYCAAQWYAGHWHVPYEYWGQGTQVTVSS	high polyreactivity
QVQLVESGGGLVQAGGSLRLSCAASGSTFAWYAMGWYRQAPGKGEFVAGISDSGGRTYYADSVKGRFTISRDNAKNTVYLQMNSLKPEDTAVYYCAAGDHYYRYAYRRGYWGQGTQVTVSS	low polyreactivity
QVQLVESGGGLVQAGGSLRLSCAASGSTFAYNAMGCYRQAPGKERELVAAISFTGDSTYYADSVKGRFTISRDNAKYTVYLQMNSLKPEDNRSSPVLSYDYWGQGTQVTVSS	low polyreactivity
QVQLVESGGGLVQAGGSLRLSCAASGSTFAYNAMGWYIQAPGKERELVAAISWGDGITYYADSVKGRFSISRDYAKNTVYLQINILKPEDTAVITRDFGYWGQGTQVTVSS	low polyreactivity
QVQLVESGGGLVQAGGSLRLSCAASGSTFAYNAMGWYRQAPGKERELVAAISSSGGSTSYADSVKARFTIARDNAKNTVNLQMNSLKPEDPAVYYCAADSYPAYLGFVGFDYWGQGTQVTVSS	low polyreactivity
QVQLVESGGGLVQAGGSLRLSCAASGSTFAYNAMGWYRQAPGKERELVAAISSSGTSTYYADSVKGRFTISRDYAKNTVYLQMNSLKTEDTAVYYCAARSAILKSGYLMDYWGQGTQVTVSS	low polyreactivity
QVQLVESGGGLVQAGGSLRLSCAASGSTFAYNAMGWYRQAPGKERELVASITVSVGSTYYADSVKGRYTISRDNAKNTVYLQMNRLKPVDTAVYYCAARVTLRSSTYWVPRTGYYYWGQGTQVTVSS	low polyreactivity
QVQLVESGGGLVQAGGSLRLSCAASGSTFAYYMGWYRQAPGKERELVASISTYYADSVKGRFTISRDNAKNTVYLQMNSLKPEDTAVYSCAKGYPDPQWGGVLAYDYWGQGTQVTVSS	low polyreactivity
QVQLVESGGGLVQAGGSLRLSCAASGSTFAYYVMGWYRQAPGKERELVAAISRGGRTYYADSVKGRFTISRDNAKNTVYLQMNSLKPEDTAVYYCAKPYHQRSAKVDYWGQGTQVTVSS	low polyreactivity

Source: the nanobody polyreactivity screen of Harvey et al. (2022)
